“Also recorded” adds a separate entry of the source.
B1: 10C9: mouse anti-Axl monoclonal antibody from hybridoma UT-10C9-B9, IgG2b; VH SEQ ID NO: 3, VL SEQ ID NO: 4 (antibody, listed as Mus musculus, V domains shown)
VH: QVQLQQPGPELVKPGASVKISCKTSDYNFTRYYIHWVKQRPGQGLEWIGWIYPGTGDSKYNEKFKGRATLTADTSSSTAYMQLSSQTSEDSAVYFCARNGNYWYFDVWGAGTAVTVSS
VL: DIVMTQAAPSGPVTPGESVSISCRSSKSLLHSNGNTYLYWFLQRPGQSPQLLIYRMSNLASGVPDRFSGSGSGTAFTLRISRVEAEDVGIYYCMQHREYPFTFGGGTKLEIK
B2: 10G5: mouse anti-Axl monoclonal antibody from hybridoma WR-10G5-E5, IgG1; VH SEQ ID NO: 21, VL SEQ ID NO: 22 (antibody, listed as Mus musculus, V domains shown)
VH: QVQLQQSGAELVRPGASVKLSCKASGYSFTDFYINWVRQRPGQGLEWIARIFPGGDNTYYNEKFKGKATLTAEESSSTAYIQLSSLTSEDSAVYFCARRGLYYAMDYWGQGISVTVSS
VL: DVLMTQTPLSLPVSLGDQASISCRSSQSLVHSNGIPYLHWYLQKPGQSPKLLIYRVSNRFSGVPDRFSGSGSGTDFTLKISRVEAEDLGVYFCSQGTHVPPTFGGGTKLEIK
B3: c10G5: chimeric (mouse variable/human constant) IgG1 variant of antibody 10G5 (antibody)
heavy: B2 VH
light: B2 VL
modifications: left off: a dimerising Fc or GST
notes: chimeric (mouse variable/human constant) IgG1 variant of antibody 10G5

Assays:
[1] = biological target: T1, rhAxl-Fc chimera (recombinant human Axl) (Homo sapiens, UniProt P30530); assay: Biacore surface plasmon resonance kinetic affinity determination on immobilized rhAxl-Fc; format: binding; settings: for association rate (kon): human Axl, Examples 5 and 13; for Off-rate (koff; s^−1) / On-rate (kon; M^−1s^−1): rhAxl immobilized on sensor chip, 25° C., 1:1 Langmuir binding model
T1 construct: Soluble recombinant antigens corresponding to the extracellular domains of members of the human TAM receptor family; purchased R&D Systems 154-AL
Protocol: Kinetic analysis of MAbs 10C9 and 10G5 interacting with rhAxl immobilized on the surface of the Biacore sensor chip. Overlay plots of sensograms for different antibody concentrations (1.3-666.7 nM for 10C9 and 0.3-166.7 nM for 10G5) are shown. The precise kinetic analysis was performed using BIA evaluation software and curve fitting according to 1:1 Langmuir binding model.
Kinetic analysis of chimeric antibodies c10C9 and c10G5 interacting with rhAxl immobilized on the surface of the Biacore sensor chip. Overlay plots of sensograms for different antibody concentrations (1.3-666.7 nM for c10C9 and 0.3-166.7 nM for c10G5) are shown. The precise kinetic analysis was performed using BIA evaluation software and curve fitting according to 1:1 Langmuir binding model.
Affinity determination of anti-Axl antibodies 10C9 and 10G5 was performed at 25° C. by surface plasmon resonance measurements using Biacore 3000 instrument (GE Healthcare). As a solid antigen-coated surface, a sensor chip CM5 with immobilized rhAxl-Fc chimera (R&D Systems, Cat. no. 154-AL) at density 190 RU was used.
For the kinetics measurements, different concentrations of anti-Axl antibodies (from 0.3 to 666.7 nM) in HBS-EP buffer (Biacore, Cat. no. BR-1001-88) were injected at flow rate of 30 μL/min with 3 min injection time followed by 5 min dissociation (buffer alone). After each cycle, the surface was regenerated by 30 sec injection of a regeneration solution (10 mM HCl, 1 M NaCl) at flow rate 50 μL/min.
The kinetic association (on-rate, kon) and dissociation (off-rate, koff) rates were calculated using BIAevaluation software and 1:1 Langmuir binding model. The equilibrium dissociation constant (KD) was calculated as the koff/kon ratio. The half-life (t1/2) of the formed antibody-antigen complexes was calculated as the ln 2/koff ratio.
Affinity determination of the chimeric anti-Axl antibodies c10C9 and c10G5 was performed at 25° C. by surface plasmon resonance measurements using Biacore 3000 instrument (GE Healthcare). As a solid antigen-coated surface, a sensor chip CM5 with immobilized rhAxl-Fc chimera (R&D Systems, Cat. no. 154-AL) at density 190 RU was used.
For the kinetics measurements, different concentrations of anti-Axl antibodies (from 0.3 to 333.3 nM) in HBS-EP buffer (Biacore, Cat. no. BR-1001-88) were injected at flow rate of 30 μL/min with 3 min injection time followed by 5 min dissociation (buffer alone). After each cycle, the surface was regenerated by 30 sec injection of a regeneration solution (10 mM HCl, 1 M NaCl) at flow rate 50 μL/min.

[2] = biological target: T2, human Axl (rhAxl-Fc chimera) (Homo sapiens, UniProt P30530); assay: Biacore binding analysis on immobilized human Axl; settings: 10 μg/mL, 25° C.
T2 construct: Soluble recombinant antigens corresponding to the extracellular domains of members of the human TAM receptor family; purchased R&D Systems 154-AL
Protocol: All binding experiments were performed using Biacore 3000 instrument (GE Healthcare) at 25° C. Soluble recombinant antigens corresponding to the extracellular domains of members of the human TAM receptor family, Axl (rhAxl-Fc chimera; R&D Systems, Cat. no. 154-AL), Mer (rhMer-Fc chimera; R&D Systems, Cat. no. 891-MR) and Tyro3 (rhTyro3/Dtk-Fc chimera; R&D Systems, Cat. no. 859-DK) were immobilized on the surface of CM5 sensor chip using amine coupling at the surface density of 393.0, 303.6 and 364.0 resonance units (RU), respectively. The Biacore run was performed in an automatic mode using Binding analysis wizard. Samples containing either MAb 10C9 or MAb 10G5 at concentration 10 μg/mL in HBS-EP buffer (GE Healthcare) were injected over the surfaces with immobilized antigens at flow rate of 30 μL/min for 3 min (association) followed by 5 min dissociation.
The binding experiments were performed using Biacore 3000 instrument (GE Healthcare) at 25° C. The soluble recombinant antigens corresponding to human Axl (rhAxl-Fc chimera; R&D Systems, Cat. no. 154-AL), mouse Axl (rmAxl-Fc chimera; R&D Systems, R&D Systems; Cat. no. 854-AX) and human Tyro3 (rhTyro3/Dtk-Fc chimera; R&D Systems, Cat. no. 859-DK) were immobilized on the surface of CM5 sensor chip using amine coupling at the surface density of 1,308.0, 2,115.9 and 1,429.0 RU, respectively. The Biacore runs were performed in an automatic mode using Binding analysis wizard.
The sample containing either MAb 10C9, MAb 10G5 or recombinant mouse (rm) Axl-ligand Gas6 (R&D Systems, Cat. no. 986-GS/CF) at concentration 10 μg/mL in HBS-EP buffer (GE Healthcare) was injected over the surfaces with immobilized antigens at flow rate of 30 μL/min for 3 min (association) followed by 5 min dissociation.
The sequence of Axl receptor from cynomolgus monkey (Macaca fascicularis; SEQ ID NO.43) was retrieved from WO2009062690A1. Based on the sequence, recombinant extracellular domain of cyno-Axl was generated by transient expression in CHO cells as a fusion protein with human Fc. The recombinant cyno-Axl-Fc was purified to homogeneity using Protein A-Sepharose (GE Healthcare). The binding experiments were performed using Biacore 3000 instrument (GE Healthcare) at 25° C. The soluble recombinant antigens corresponding to human Axl (rhAxl-Fc chimera; R&D Systems, Cat. no. 154-AL) and cyno-Axl were immobilized on the surface of CM5 sensor chip using amine coupling at the surface density of 775 and 880 RU, respectively. The Biacore runs were performed in an automatic mode using Binding analysis wizard.
The sample containing either MAb 10C9, MAb 10G5 or human Axl-specific MAb 5F11 (control) at concentration 10 μg/mL in HBS-EP buffer (GE Healthcare) was injected over the surfaces with immobilized antigens at flow rate of 30 μL/min for 3 min (association) followed by 5 min dissociation.
In addition, the Axl-binding properties of the chimeric antibodies c10C9 and c10G5 were tested using Biacore 3000 instrument (GE Healthcare) and a sensor chip CM5 coated with human Axl (rhAxl-Fc chimera; R&D Systems, Cat. no. 154-AL) at the surface density of 1,308.0 RU. The Biacore runs were performed in an automatic mode using Binding analysis wizard. The samples comprising either the chimeric antibodies c10C9 and c10G5 or their murine counterparts at concentration 10 μg/mL in HBS-EP buffer (GE Healthcare) were injected over the surfaces with immobilized antigens at flow rate of 30 μL/min for 3 min (association) followed by 5 min dissociation.

Molecule | association rate (kon) [1] [M⁻¹ s⁻¹] | Off-rate (koff; s^−1) ([1]; mouse MAbs) [s⁻¹] | On-rate (kon; M^−1s^−1) ([1]; mouse MAbs) [M⁻¹ s⁻¹] | binding to human Axl [2] | binding to human Axl ([2]; listed as 1009) | Off-rate (koff; s^−1) ([1]; chimeric antibodies) [s⁻¹] | On-rate (kon; M^−1s^−1) ([1]; chimeric antibodies) [M⁻¹ s⁻¹]
B1 | 1.61e+06 | 0.000289 | 1.61e+06 | specific binding; also recorded: strong and specific interaction | bind strongly | – | –
B2 | 830000 | 0.000439 | 829000 | bind strongly; also recorded: specific binding; also recorded: strong and specific interaction | – | – | –
B3 | – | – | – | bind immobilized Axl with profiles very similar to the binding profiles of the corresponding mouse antibodies | – | 0.000169 | 1.64e+06
